Results: the nanobody polyreactivity screen of Harvey et al. (2022)

Assay: yeast display, Sf9 membrane polyspecificity reagent, FACS + sequencing; frameworks hold sequencing errors
In short: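 Galactose-induced (36–48 hours) yeast carrying a synthetic nanobody display library were exposed to 10% biotinylated, detergent-solubilized Sf9 membrane reagent at 4 °C for 1 hour. FACS followed streptavidin microbead enrichment, using low and high (top ~1%) gates for expression (anti-HA) and reagent binding (streptavidin). Colony PCR, MiSeq 2 × 250 sequencing and CDR-length filtering followed. Labels for polyreactivity reflect the gate of origin.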

Sequence	polyreactivity (PSR sort gate)
QVQLQESGGGLEQAGGSLRLSCAASGYISDIGTMGWYRQAPGKEREFVATIVVGSTTNYADSVKGRFTISRDNAKNTVYLQPQSGRYRGVLLRAWLLAVGKFTYWGQGTQETVSS	low polyreactivity
QVQLVESGGGLVQAGGSLRLSCAASGRTFWYYAMGWYRQAPGKERELVADITRRGGGTYYADSVKGRFTISRDNAKNTVYLQMNSLKPEDTAVYYCAVERWPRSYPPSYDYWGQGTQVTVSS	high polyreactivity
QVQLVESRGCLVQAGGSLRLSCAASGSTFYPYAMGWYRQAPGKERELVAGITVIDGSTYYADSVKGRFTISRDNAKNTVYLQMNSLKPEDTAVYYCAFDAPNQVQEYGYWGQGTQVTVSS	low polyreactivity
KVQLVESGAGLVQAGGSLRLSCAASVSNFTSHAMGWSRQAPGKEREFVAAISVGGGITYYADSVKGRFTISRDHEKNTVYLQMNSLNPEDTAVYYCDADGEYPHSDDFEYWGQVTQVTVSS	low polyreactivity
QVQLVESGGGLVQAGGSLRISCAASGSIFGYYAMGWYRQAPGKERELVAAITRSGGSTYYADSVKGRFTISRDNAKNTVYLQMNSLKPEDTAVYYCAAYYGHLYYTFDYWGQGTQVTVSS	low polyreactivity
QVQLVESGGGLVQAGGSLRLSCAASGNTFAYNVMGWYRQAPGKERELVAAISRSGGSTYYADSVKGRFTISRDNAKNTVYLQMNSLKPEDTAVYYCAAVGRRVRPEGSYNRWGHDYWGQGTQVTVSS	high polyreactivity
QVQLVESVGGLVQAGCTLPLSCAASGLIFYLYAMGWYRQATGKERELVARISRGGSTNYADSVKGRFTISRDNAKNTVYLQMNSLNPDDTAVYYCAADWFFSLGEMYYWGQGTQVTVSS	low polyreactivity
QVQLVESGGGLVQAGGSLRLSCAASGNTFSPNAMGWYRQAPGKERELVAALDSRDGITYYADSVKGRFTISRDNAKNTVYLQMNSLKPEDPAVYYCNAEGSYPDVSPVLGYDYWGQGTQVTVSS	low polyreactivity
QDQLGESGGGLVQAGGRLRLSCAASGFIIWNYGMGWYRQPPGKERELVAAISSGGTITKYADSVKGRFTISRDNAKNTVYLQMNSLKPEDTAVYYWAARWGVRAGYATFDYWGQGTQVTVSS	high polyreactivity
QVQLVESGGGLVQAGGSLRLSCAASGSIFLYNAMGWYRQAPGKERELVADISWSGGSTYYADSVKGRFTISRDNAKNTVYLQMNSLKPEDTAVYYCNAVVYWFSTSYVYTYDYWGQGTQVTVSS	high polyreactivity
QVQLVESGGGLVQAGGSLPLSCAASGSIFMTYAIGWYRQAPGKERELVAAIRDSGDRTYYADSVKGRFTISRDNAKNTVYLQINSLKPEDTAVYYCNARWQEALKYDYWGQGTQVTVSS	low polyreactivity
QDQLVESVGGLVQAGGSLRLIFAASGSILTFYAMGWYRQAPGKERELVAAITWRGCSTYYADSVKGRFTISRDNEKNTVYLQMNSLKPEDTAVYYCAAERYGPRYDYWGQGTQVTLSS	high polyreactivity
QVQLVESGGGLVQAGGSLRLSCAASGSIFYSNAMGWYRQAPGNERELVAAITYRGGRTYYADSVKGRFTISRDNAKNTVYLQKNSLKPEDTAVDYCAKVVRAQALDSIYNGRYDYWGEGTQVTVSS	low polyreactivity
QVQLVESGGGLVQAGGSLRLTCAASGSTFRKNVMGWYRQAPGKERELVARISNSGGSTNYADSVKGRFTISRDNAKITVYLQINSLKPADTAVYNCNARKYTNHATYDYWGQGTQVTVSS	high polyreactivity
QVQLVESGGGLVQAGGSLRLSCAASGSTFNKYTMGWYRQAPGKERELVASISSDGSTNYADSVKGRFTISRDNAKNTVYLQMNSLKPEDTAVYYCAADEGTGQASLSSNLYDYWGQGTQVTVSS	low polyreactivity
QVQLVESGGGLVQAGGSLRLSCSASGSTFDVYAMGRYRQAPGKERELVAAISRSGGSTYYADSVKGRFTISRDNAKNTVYLQMNSLKPEDTAVYYCAAEVGIVDYDYWGQGTQVTVSS	low polyreactivity

Sequence	polyreactivity (PSR sort gate)
QVQLVESGGGLVQAGGSLRLSCAASGRIFTYNAMGWYRQAPGKERELVAVITSGGSTYYADSVKGRFTISRDNAKNTVYLQMNSLKPEDTAVYYCAARVWGSSQYYYWGQGTQVTVSS	low polyreactivity
QVQLVESGGGLVQAGGSLRLSCAASGPTFDYNAMGCYRPAPGKERELVAAIRFGGGSTYYADSVKGRFTISRDNAKNTVYFQINSLKPEDTAVYYCNASPLWIGWVIVPVGSSHYDYWGQGTQVTVSS	low polyreactivity
HVQLGESGGGLVQAGGSLRLSCAASGRISVFYTMGGYRQAPGKEREMVAVIRTSGGRTNYADSVKGRFTISRDNAKNTVYLQMNSLKPEDTAVYYCAARVVRYGYKYYYWGQGTQVTVSS	low polyreactivity
QVQLVESGGGLVQAGGSLRLSCAASGIIIGGYAMGWYRQAPGKERELVADITWSGGSTTYADSVKGRFTISRDNAKNTVYLQMNSLKPEDTAVYYCAAEDYYIYREPYDYWGQGTQVTVSS	low polyreactivity
QVQLEESGGGLVQAGGSLRLSCAASGRIFWYYDMGWYRQAPGKERELVAAISQRGGSTYYADSVKGRFTISRDNAKNTVYLQMNSLKAEDTAVYYCAKRNPYWATREYWGQGTQVTVSS	high polyreactivity
QVQLVESGGGLVQAGGSLRLSCAASGFTFRYYAMGSYRQAPGKERELVAAISAGGGSTYYADSVKGRFTISRDNAKNTVYLQMNSLKPEDTAVYYCAAAGARPGYDYWGQGTQVTVSS	high polyreactivity
QVQLQESGGGLVQARGSLRLSCSASGNISVNGFMGWYRQAPGNVRELVASIGIGGTTYYADSVKGRFSISRDNAKNTVYLQMNSLKPEDTSVYYCAASYLYYAYSYWYQGTQVTVSS	low polyreactivity
QVQLVESGGGLVQAGGSLRLSCAASGSIFYWYAMGWYRQAPGKERELVAAITRSAGTTYYADSVKGRITISRDNAKNTVYLQMNSLKPEDTAVYYCAATYPRPYGSRPRYEYWGQGTQVTVSS	high polyreactivity
QVQLVESGGGLVQAGGSLRFSCAASGGNFGYYAMGWYRQAPGKERELVARISSSGGSTYYADSVKGRFTISRDNAKNTVYLQMNSLKPEDTAVYYCNTASNRYPGWRAEFDYWGQGTQVTVSS	low polyreactivity
QVQLVESGGGLVQAGGSLRLSCAASGSIFYGNAMGWYRQAPGKERELVAAISTRGGSTYYADSVKGRFTISRDYAKNTVYLQMNSLKPEDTAVYYCNADSRRRLFDYWGQGTQVTVSS	high polyreactivity
QVQLVESCGGIDQAGGSLRLTCAATGRIFNSYPMGWYRQAPGKERELVAAISRNGGITYYADSVKARFTISRDNAKITVYLQMNILKQEDTAVYYCNADSSRRLYSSEYWGEGTQVTVSS	high polyreactivity
QVQLVESGGGLVQAGGRLRLSCAASGRIFSYNAMGWYRQAPGKERELVAGITSGGRTYYADSVKGRFTISRDNAKNTVYLQMNSLKPEDTAVYYCAARYVPARTRYYYWGQGTQVTVSS	high polyreactivity
QVQLVESGGGLVQAGGSLRLSCAASGSIFAKYTMGWYRQAPGKERELVAAITRSGTSTRYADSVKGRFTISRDNAKNTVYLQMNSLKPEDTAVYYCAASLYSWGQGTQVTVSS	high polyreactivity
QVQLVESGGGLVQAGGSLRLSCAPSGITFWVYVMGWYRQAPGKEREFVADISSGAGTTYYADSVKGRFTISRDNAKNTVYLQMNSLKPEDTAVYYCAARRWWPQWYDYWGQGTQVTVSS	high polyreactivity
QVQLVESGGGLVQAGGSLRLSCAASGSIFYVYAMGWYRQAPGKERELVAAITARVTSTYYADSVKGRFTISRDNAKNTVYLQMNRLKPEDTADYYCAARTSYKTGYRKYDYWGQGTQVTVSS	low polyreactivity
QVQLGESGGGLVQAGGSLRLSCAASGRIYAAYAMGWSRQAPGKERELVAAISGSGGSTSYADSVKGRFTISRDNAKNTVYLQMNSLKPEYTAVYYCAADYSYLAEFDYWGQGTQVTVSS	low polyreactivity
